Tests used:
5-hydroxy-L-norvaline [1] = assay: Bioconversion (feeding) assay, step A4; type: cell-based; design: key: +: measureable activity detected in the assay; −: no measurable activity detected in the assay; settings: BDO biosynthetic pathway step A4
Protocol: (§1) Bioconversion assays. The activity of a candidate enzyme towards a given substrate can also be evaluated in vivo using a simple feeding assay. A strain expressing the candidate enzyme is grown in the presence of the substrate for which activity is desired. Samples of the culture are removed periodically and the cells are removed via centrifugation. The culture supernatant is then analyzed (e.g., by LC-MS) to determine how much of the substrate has been removed and how much of a given product is present.
(§2) The aldehyde dehydrogenase linked reaction was used for step A5.

5-hydroxy-L-norvaline [2] = assay: In vitro substrate conversion assay, step A4; type: biochemical; design: key: +: measureable activity detected in the assay; −: no measurable activity detected in the assay; settings: BDO biosynthetic pathway step A4
Protocol: (§3) In Vitro Substrate Conversion. Most of the enzyme assays described above are based on recording changes in absorbance at a given wavelength. In addition to such spectrophotometric readouts, these assays can also be analyzed by more direct methods using an endpoint assay where the reaction is terminated after a given period of time and the mixture is analyzed via HPLC or LC-MS methods.
as §2

5-hydroxy-L-norvaline [3] = assay: Enzyme assay, aminotransferase (step A4), cell lysates; type: biochemical; design: key: +: measureable activity detected in the assay; −: no measurable activity detected in the assay; settings: BDO biosynthetic pathway step A4
Protocol: (§4) Enzyme expression and crude lysate preparation. The enzymatic activity of each candidate enzyme is evaluated, first in E. coli and subsequently in C. glutamicum. It will be apparent to one of skill in the art that the expression and lysate preparations may need to be modified depending on the host cell and recombinant gene of interest.
(§5) E. coli: E. coli strains transformed with expression clones, for example, pUC18 or MB4124 based clones having a medium strong constitutive promoter regulating the recombinant gene of interest, are grown aerobically in LB medium (Difco) containing the appropriate antibiotic(s). At an OD600 of 0.5, IPTG is added to a final concentration of 0.25 mM. The cultures are grown to a final OD600 of 1.5 at which time the cells are collected and harvested by centrifugation. Cell pellets are resuspended in BugBuster (Novagen) reagent containing benzonase and lysozyme. Alternatively, E. coli strains transformed with expression clones, are grown overnight aerobically at 37° C. in BHI containing the appropriate antibiotic(s). 300 μL of fresh overnight culture is used to inoculate 2.7 mL BHI containing 0.25 mM IPTG and the appropriate antibiotic. The cultures are grown aerobically for 4-5 hours at 37° C. at which time the cells are collected and harvested by centrifugation. Cell pellets are frozen at −80° C. for at least 15 minutes, then thawed and resuspended in BugBuster (Novagen) reagent. Lysis and lysate collection are performed according to the manufacturer's instructions and, for example, may involve use of a sonicator and/or French press. Cleared lysates are stored on ice until enzyme assays are performed.
C. glutamicum: C. glutamicum strains transformed with MB4124 expression clones containing the recombinant gene of interest are grown aerobically in BHI broth supplemented with the proper antibiotic(s). At an OD600 of 0.5, IPTG is added to a final concentration of 0.25 mM. The cultures are grown to a final OD600 of 1.5 at which time the cells are collected and harvested by centrifugation. The pellet is washed once in one volume of water and resuspended in lysis buffer (1.0 ml 1.0 M HEPES buffer, pH 7.5, 0.5 ml 1M KOH, 10 μl 0.5M EDTA, protease inhibitor cocktail, water to 5 ml; the final pH will vary depending on the individual enzyme being tested) and one volume of 0.1 mm acid washed glass beads. The mixture is repeatedly alternately vortexed and held on ice for 15 seconds, eight times. After centrifugation for 5 min at 4,000 rpm, the supernatant lysate is removed and respun for 20 min at 10,000 rpm. Alternatively, C. glutamicum strains transformed with MB4124 expression clones containing the recombinant gene of interest are grown aerobically overnight in BHI broth supplemented with the proper antibiotic(s). Five mL of fresh overnight culture is used to inoculate 200 mL BHI containing 0.25 mM IPTG and the appropriate antibiotic. The cultures are grown aerobically at 30° C. for 5-7 hours at which time the cells are collected and harvested by centrifugation at 4° C. The pellet is resuspended in 15 mL ice cold 39 mM KH2PO4, 61 mM K2HPO4, 0.5 M KCl and lysed using a BioSpec BeadBeater and following the manufacturer's instructions. […]
(§6) Protein Assays. Protein concentrations in lysates are determined according to the methods of Bradford et al. (Anal. Biochem. 72:248-254 [1976]) or by the method of Smith et al. (Anal. Biochem. 150(1):76-85 [1985]) and lysates are assayed according to the methods below. […]

[4] = system: 5-hydroxy-2-oxopentanoate; assay: Enzyme assay, decarboxylase (step A5), aldehyde dehydrogenase linked reaction; type: biochemical; design: key: +: measureable activity detected in the assay; −: no measurable activity detected in the assay; settings: BDO biosynthetic pathway step A5
Procedure, shortened: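 Crude lysates of E. coli or C. glutamicum expressing the candidate decarboxylase (0.25 mM IPTG induction) were assayed against vector-only control lysates, using natural substrate and pathway metabolite. Decarboxylation was coupled to aldehyde dehydrogenase converting the aldehyde product to acid with NAD+ reduction, followed as absorbance increase at 340 nm.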

[5] = system: 5-hydroxy-2-oxopentanoate; assay: Bioconversion (feeding) assay, step A5; type: cell-based; design: key: +: measureable activity detected in the assay; −: no measurable activity detected in the assay; settings: BDO biosynthetic pathway step A5
Protocol: as §1, §2

[6] = system: 3-methyl-2-oxopentanoate (3-MOP); assay: Kinetics of purified His-tagged KdcAL1 on 3-MOP (aldehyde dehydrogenase linked reaction); type: biochemical; settings: substrate 3-MOP; purified His-tagged enzyme
Protocol: (§7) Aldehyde Dehydrogenase linked reaction: In another example of a coupled assay, the decarboxylation of a substrate is linked to the activity of an aldehyde dehydrogenase (Sigma catalog number A6338) reaction that converts the aldehyde product to a carboxylic acid with the concomitant reduction of NAD+. The overall activity of the coupled reactions is assessed spectrophotometrically by measuring the increase in absorbance at 340 nm which corresponds to the NAD+ reduction. One enzyme unit is defined as the amount of enzyme that catalyzes the decarboxylation of 1 μmol of substrate per minute.
(§8) Standard molecular biology techniques were used to create an E. coli expression construct encoding KdcAL1 having three histidine (His) residues attached to its C-terminus. This His-tagged enzyme was over-expressed in E. coli, purified and assayed to assess its activity towards a natural substrate, 3-methyl-2-oxopentanoate (3-MOP) and its BDO pathway substrate, 5-hydroxy-2-oxopentanoate (5-HOP). The purified enzyme was assayed as described in example 3 above (step A5, Aldehyde dehydrogenase linked reaction). […] This Vmax is about 10 times lower than the rate of 3-MOP activity.

[7] = system: 5-hydroxy-2-oxopentanoate (5-HOP); assay: Kinetics of purified His-tagged KdcAL1 on 5-HOP (aldehyde dehydrogenase linked reaction); type: biochemical
Protocol: as §7, §8

[8] = system: 5-hydroxy-2-oxopentanoate; assay: In vitro substrate conversion assay, step A5; type: biochemical; design: key: +: measureable activity detected in the assay; −: no measurable activity detected in the assay; settings: BDO biosynthetic pathway step A5
Protocol: as §3, §2

4-hydroxybutanal [9] = assay: In vitro substrate conversion assay, step A6; type: biochemical; design: key: +: measureable activity detected in the assay; −: no measurable activity detected in the assay; settings: BDO biosynthetic pathway step A6
Protocol: as §3, §2

4-hydroxybutanal [10] = assay: Bioconversion (feeding) assay, step A6; type: cell-based; design: key: +: measureable activity detected in the assay; −: no measurable activity detected in the assay; settings: BDO biosynthetic pathway step A6
Protocol: as §1, §2

4-hydroxybutanal [11] = assay: Enzyme assay, oxidoreductase (step A6), cell lysates; type: biochemical; design: key: +: measureable activity detected in the assay; −: no measurable activity detected in the assay; settings: BDO biosynthetic pathway step A6
Protocol: as §4
as §5, with “performed. […]” for “performed.”
as §6

B1: BcaTPf: Branched-chain-amino-acid transaminase from Pseudomonas fluorescens, step A4 enzyme candidate, SEQ ID NO. 58 (protein, listed as Pseudomonas fluorescens)
chain: MGNESINWDKLGFDYIKTDKRFLQVWKNGEWQEGTLTDDNVLHISEGSTALHYGQQCFEGLKAYRCKDGSINLFRPDQNAARMQRSCARLLMPHVPTDVFIDACKQVVKANEHFIPPYGSGGALYLRPFVIGTGDNIGVRTAPEFIFSVFCIPVGAYFKGGLVPHNFQISTFDRAAPQGTGAAKVGGNYAASLMPGSEAKKAGFADAIYLDPMTHSKIEEVGSANFFGITHDNQFITPKSPSVLPGITRLSLIELAKTRLGLDVVEGEVFIDKLDQFKEAGACGTAAVISPIGGIQYNGKLHVFHSETEVGPITQKLYKELTGVQTGDVEAPQGWIVKV
Bioconversion Assay (5-hydroxy-L-norvaline [1]): + | In Vitro Substrate Conversion Assay (5-hydroxy-L-norvaline [2]): + | Enzyme Assay (5-hydroxy-L-norvaline [3]): +

B2: KdcALl: Branched-chain alpha-keto acid decarboxylase from Lactococcus lactis, step A5 enzyme candidate, SEQ ID NO. 36; His-tagged when purified (protein, listed as Lactococcus lactis)
chain: MYTVGDYLLDRLHELGIEEIFGVPGDYNLQFLDQIISREDMKWIGNANELNASYMADGYARTKKAAAFLTTFGVGELSAINGLAGSYAENLPVVEIVGSPTSKVQNDGKFVHHTLADGDFKHFMKMHEPVTAARTLLTAENATYEIDRVLSQLLKERKPVYINLPVDVAAAKAEKPALSLEKESSTTNTTEQVILSKIEESLKNAQKPVVIAGHEVISFGLEKTVTQFVSETKLPITTLNFGKSAVDESLPSFLGIYNGKLSEISLKNFVESADFILMLGVKLTDSSTGAFTHHLDENKMISLNIDEGIIFNKVVEDFDFRAVVSSLSELKGIEYEGQYIDKQYEEFIPSSAPLSQDRLWQAVESLTQSNETIVAEQGTSFFGASTIFLKSNSRFIGQPLWGSIGYTFPAALGSQIADKESRHLLFIGDGSLQLTVQELGLSIREKLNPICFIINNDGYTVEREIHGPTQSYNDIPMWNYSKLPETFGATEDRVVSKIVRTENEFVSVMKEAQADVNRMYWIELVLEKEDAPKLLKKMGKLFAEQNK
modifications: His-tag when purified
Enzyme Assay [4]: + | Bioconversion Assay [5]: + | Km [6]: 1.3 mM | Vmax for 5-HOP lower than the rate of 3-MOP activity ([7]; 5-HOP versus 3-MOP): about 10 times | Km ([7]; substrate 5-HOP, purified His-tagged enzyme): 49 mM | Vmax ([7]; substrate 5-HOP, purified His-tagged enzyme, FIG. 24): approximately 0.15 U/mg | In Vitro Substrate Conversion Assay [8]: +

B3: ADH6Sc: Alcohol dehydrogenase from Saccharomyces cerevisiae, step A6 enzyme candidate, SEQ ID NO. 47 (protein, listed as Saccharomyces cerevisiae)
chain: MSYPEKFEGIAIQSHEDWKNPKKTKYDPKPFYDHDIDIKIEACGVCGSDIHCAAGHWGNMKMPLVVGHEIVGKVVKLGPKSNSGLKVGQRVGVGAQVFSCLECDRCKNDNEPYCTKFVTTYSQPYEDGYVSQGGYANYVRVHEHFVVPIPENIPSHLAAPLLCGGLTVYSPLVRNGCGPGKKVGIVGLGGIGSMGTLISKAMGAETYVISRSSRKREDAMKMGADHYIATLEEGDWGEKYFDTFDLIVVCASSLTDIDFNIMPKAMKVGGRIVSISIPEQHEMLSLKPYGLKAVSISYSALGSIKELNQLLKLVSEKDIKIWVETLPVGEAGVHEAFERMEKGDVRYRFTLVGYDKEFSD
In Vitro Substrate Conversion Assay (4-hydroxybutanal [9]): + | Bioconversion Assay (4-hydroxybutanal [10]): + | Enzyme Assay (4-hydroxybutanal [11]): +
